Molecular target: human neutral endopeptidase 24.11 (human) (UniProt P08473)
Experiment: cell-based or functional assay

## GLP-1-(7-36)-NH2 (from UniProt P01275 98-127) (peptide)
  Degradation rate (mM/100 ng/ml NEP24.11/min): 0.0586
